Measured values as given in US20020001857A1.

What was measured:
[1] = target: PHF-tau (human) (UniProt P10636); assay: competition ELISA on captured PHF-tau; biotinylated AT8, unlabeled competitor AT8 at 10 ug/ml
[2] = target: PHF-tau (human) (UniProt P10636); assay: competition ELISA on captured PHF-tau; biotinylated AT8, unlabeled competitor AT120 at 10 ug/ml
[3] = target: PHF-tau (human) (UniProt P10636); assay: competition ELISA on captured PHF-tau; biotinylated AT120, unlabeled competitor AT8 at 10 ug/ml
[4] = target: PHF-tau (human) (UniProt P10636); assay: sandwich ELISA, AT120 coated, no tau added (background), detection with biotinylated BT2 and HT7
[5] = target: affinity-purified human normal tau (human) (UniProt P10636); assay: as above
[6] = target: PHF-tau (human) (UniProt P10636); assay: competition ELISA on captured PHF-tau; biotinylated AT120, unlabeled competitor AT120 at 10 ug/ml
[7] = target: PHF-tau (human) (UniProt P10636); assay: sandwich ELISA, AT120 coated, tau spiked in tau-negative CSF, detection with biotinylated BT2 and HT7
[8] = target: affinity-purified human normal tau (human) (UniProt P10636); assay: as above
[9] = target: PHF-tau (human) (UniProt P10636); assay: competition ELISA on captured PHF-tau; biotinylated BT2, unlabeled competitor BT2 at 10 ug/ml
[10] = target: PHF-tau (human) (UniProt P10636); assay: competition ELISA on captured PHF-tau; biotinylated BT2, unlabeled competitor AT120 at 10 ug/ml

For monoclonal antibody AT8, the absorbance [1] was 0.001 absorbance and the absorbance [2] was 0.372 absorbance.
monoclonal antibody AT120 showed an absorbance [3] of 0.476 absorbance, an absorbance at 0 pg/ml (blank) (milliabsorbance units) [4] of 92 and an absorbance at 0 pg/ml (blank) (milliabsorbance units) [5] of 87. It also gave an absorbance [6] of 0.001 absorbance, an absorbance at 10 pg/ml (milliabsorbance units) [7] of 143 and an absorbance at 20 pg/ml (milliabsorbance units) [7] of 257. For the same substance, the absorbance at 40 pg/ml (milliabsorbance units) [7] was 566, the absorbance at 80 pg/ml (milliabsorbance units) [7] was 901 and the absorbance at 160 pg/ml (milliabsorbance units) [7] was 1680. It also gave an absorbance at 10 pg/ml (milliabsorbance units) [8] of 154, an absorbance at 20 pg/ml (milliabsorbance units) [8] of 256 and an absorbance at 40 pg/ml (milliabsorbance units) [8] of 678. It also gave an absorbance at 80 pg/ml (milliabsorbance units) [8] of 970 and an absorbance at 160 pg/ml (milliabsorbance units) [8] of 1610.
monoclonal antibody BT2 gave an absorbance [9] of 0.054 absorbance and an absorbance [10] of 0.543 absorbance.
